The values below come from article PMC8042448 (The Journal of Biological Chemistry, 2021).

A word on the stoichiometry N: it is the number of molecules, sites or subunits per partner or assembly.

Holding throughout (conditions): both partners purified
The target of experiment [1] is T1, amyloid β (1–42) oligomers (UniProt P05067 672-713).
T1 construct: also called Aβ(1–42)_(oligo); Aβ_(oligo)
In words: co-sedimentation.

In experiment [2] the target is T1, amyloid β (1–42) oligomers. The experiment in a line: […]) in 30 mM Tris-HCl pH 7.4; […].
Experiment [3] addresses T1, amyloid β (1–42) oligomers. The experiment in a line: […] (40–80 μM) […] (160–300 μM) in 30 mM Tris-HCl pH 7.4; […].

B1: C-terminally truncated human prion protein huPrP(23–144) (domain or fragment)
chain: KKRPKPGGWNTGGSRYPGQGSPGGNRYPPQGGGGWGQPHGGGWGQPHGGGWGQPHGGGWGQPHGGGWGQGGGTHSQWNKPSKPKTNMKHMAGAAAAGAVVGGLGGYMLGSAMSRPIIHFGSD
notes: also called N-terminal construct huPrP(23–144); huPrP(23–144)exc
On to B1, for which the “stoichiometry N” value in experiment [1] was found to be 3.7; in experiment [2], 8.6.

B2: recombinant full-length human prion protein huPrP(23–230) (natural protein)
chain: not shown
notes: also called full-length huPrP
Turning to B2, the binding result in experiment [3] is reported as “binds”.
